Legend:
[1] = target: fluorescein-labeled synthetic eIF1A-CT7 peptide (human); assay: fluorescence polarisation
[2] = target: eIF5B Domain-4 (eIF5B-D4) (human); assay: fluorescence polarisation
[3] = target: eIF5B-D34 (eIF5B domains D3 and D4) (human); assay: fluorescence polarisation
[4] = target: eIF1AΔC (eIF1A missing the entire 26-residue C-terminal tail) (human); assay: NMR titration

eIF5B-D34 (eIF5B domains D3 and D4) (human), sequence (O60841 whole entry, the tested form may be a part): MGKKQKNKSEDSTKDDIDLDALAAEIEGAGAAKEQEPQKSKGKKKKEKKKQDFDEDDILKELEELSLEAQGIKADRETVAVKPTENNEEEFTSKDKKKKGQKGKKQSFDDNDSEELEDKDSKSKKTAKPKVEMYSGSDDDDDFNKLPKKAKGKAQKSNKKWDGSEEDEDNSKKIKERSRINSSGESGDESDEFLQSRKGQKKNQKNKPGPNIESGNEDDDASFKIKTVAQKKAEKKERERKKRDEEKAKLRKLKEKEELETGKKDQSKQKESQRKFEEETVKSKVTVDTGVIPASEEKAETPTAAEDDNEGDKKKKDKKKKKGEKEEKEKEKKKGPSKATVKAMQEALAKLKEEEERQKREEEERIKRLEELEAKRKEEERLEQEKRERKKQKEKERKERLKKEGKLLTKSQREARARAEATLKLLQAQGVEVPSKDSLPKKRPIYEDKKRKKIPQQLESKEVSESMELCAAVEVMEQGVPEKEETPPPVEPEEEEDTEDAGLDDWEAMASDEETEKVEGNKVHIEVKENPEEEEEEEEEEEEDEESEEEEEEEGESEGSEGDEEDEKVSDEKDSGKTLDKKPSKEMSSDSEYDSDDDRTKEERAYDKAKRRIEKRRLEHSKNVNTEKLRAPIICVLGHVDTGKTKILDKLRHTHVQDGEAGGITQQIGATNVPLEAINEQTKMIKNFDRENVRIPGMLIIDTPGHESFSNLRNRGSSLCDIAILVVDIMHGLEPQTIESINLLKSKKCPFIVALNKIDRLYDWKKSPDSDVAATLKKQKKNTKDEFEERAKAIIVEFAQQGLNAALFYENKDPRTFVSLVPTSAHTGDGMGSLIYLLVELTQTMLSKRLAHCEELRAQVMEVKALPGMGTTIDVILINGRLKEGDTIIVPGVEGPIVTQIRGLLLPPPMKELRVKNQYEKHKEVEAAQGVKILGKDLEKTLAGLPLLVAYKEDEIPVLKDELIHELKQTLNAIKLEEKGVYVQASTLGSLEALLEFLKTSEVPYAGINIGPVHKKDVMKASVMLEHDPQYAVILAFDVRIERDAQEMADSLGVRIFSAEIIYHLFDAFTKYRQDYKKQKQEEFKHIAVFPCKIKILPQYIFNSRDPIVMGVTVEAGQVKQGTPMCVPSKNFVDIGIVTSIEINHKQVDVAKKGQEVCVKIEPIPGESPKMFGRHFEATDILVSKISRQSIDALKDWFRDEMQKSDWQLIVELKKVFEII
eIF5B Domain-4 (eIF5B-D4) (human), sequence (O60841 whole entry, the tested form may be a part): as above

Row | Substance | Kd [1] [µM] | Kd [2] [µM] | Kd [3] [µM] | Kd [4] [µM]
1 | eIF5B-D34 (eIF5B domains D3 and D4) (domain or fragment) | 27 |  |  | 
2 | eIF1A C-terminal tail (eIF1A-CTT), 26 residues (peptide) |  | 12 | 18 | 
3 | eukaryotic translation initiation factor 1A (eIF1A), full-length (from UniProt P47813 1-144) (natural protein) |  | 39 | 41 | 
4 | eIF5B Domain-4 (eIF5B-D4) (domain or fragment) | 12 |  |  | 
5 | eIF5B Domain-3 (eIF5B-D3) (domain or fragment) |  |  |  | < 1000
6 | eIF1A-CT16 (the 16 C-terminal residues in eIF1A) (peptide) |  | 12 | 23 | 

From article PMC5009744
